The target in series [1] is RPS23 peptide (peptide fragment of the RPS23 protein).
In series [2] the target is T1, HIF-1α C-terminal transcriptional activation domain (CTAD) peptide, Q16665.
T1 chain: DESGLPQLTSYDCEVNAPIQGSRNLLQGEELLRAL

Another series deals with T2, RPS23 20mer E08A.
T2 chain: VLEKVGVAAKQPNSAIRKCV

The target of the next series is T3, RPS23 20mer K18A.
T3 chain: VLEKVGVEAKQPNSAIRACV

Another series deals with T4, RPS23 20mer C19A.
T4 chain: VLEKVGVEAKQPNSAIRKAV

For a further series, the target named is T5, S. Pombe RPS23 peptide.
T5 chain: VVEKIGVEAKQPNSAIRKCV

Series [3] addresses T6, HIF-1α N-terminal oxygen dependent degradation domain (NODD) peptide, Q16665.
T6 chain: DALTLLAPAAGDTIISLDF

The target of a further series is T7, RPS23 20mer I16A.
T7 chain: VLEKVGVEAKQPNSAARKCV

In another series the target is T8, RPS23 20mer P12I.
T8 chain: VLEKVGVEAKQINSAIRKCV

The target in series [4] is histone fragment peptides.
The target of another series is T9, RPS23 20mer Q11A.
T9 chain: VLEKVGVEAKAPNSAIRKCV

The target of the next series is T10, RPS23 20mer S14A.
T10 chain: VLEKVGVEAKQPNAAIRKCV

The target in another series is T11, RPS23 20mer G06A.
T11 chain: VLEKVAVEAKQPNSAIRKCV

The target in a further series is T12, RPS23 20mer K04A.
T12 chain: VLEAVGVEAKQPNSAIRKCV

Series [5] deals with T13, HIF-1α C-terminal oxygen dependent degradation domain (CODD) peptide, Q16665.
T13 chain: DLDLEMLAPYIPMDDDFQL

A further series has as its target T14, RPS23 20mer N13A.
T14 chain: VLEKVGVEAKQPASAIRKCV

For a further series, the target named is T15, RPS23 20mer V07A.
T15 chain: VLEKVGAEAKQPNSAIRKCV

Another series addresses T16, RPS23 20mer V05A.
T16 chain: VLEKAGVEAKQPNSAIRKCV

The target of series [6] is T17, S. Cerevisiae RPS23 peptide.
T17 chain: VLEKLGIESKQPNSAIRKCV

The target in another series is T18, RPS23 16mer.
T18 chain: EKVGVEAKQPNSAIRK

The next series deals with T19, RPS23 20mer P12A.
T19 chain: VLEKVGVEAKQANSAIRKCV

For a further series, the target named is T20, RPS23 20mer K10A.
T20 chain: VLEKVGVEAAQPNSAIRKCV

Numbering of substitutions follows the chain as printed. Names may count otherwise.

B1: H155A mutant of full-length human OGFOD1 (protein)
chain: MGSSHHHHHHSSGLVPRGSHMASMNGKRPAEPGPARVGKKGKKEVMAEFSDAVTEETLKKQVAEAWSRRTPFSHEVIVMDMDPFLHCVIPNFIQSQDFLEGLQKELMNLDFHEKYNDLYKFQQSDDLKKRREPHISTLRKILFEDFRSWLSDISKIDLESTIDMSCAKYEFTDALLCADDELEGRRIAFILYLVPPWDRSMGGTLDLYSIDEHFQPKQIVKSLIPSWNKLVFFEVSPVSFHQVSEVLSEEKSRLSISGWFHGPSLTRPPNYFEPPIPRSPHIPQDHEILYDWINPTYLDMDYQVQIQEEFEESSEILLKEFLKPEKFTKVCEALEHGHVEWSSRGPPNKRFYEKAEESKLPEILKECMKLFRSEALFLLLSNFTGLKLHFLAPSEEDEMNDKKEAETTDITEEGTSHSPPEPENNQMAISNNSQQSNEQTDPEPEENETKKESSVPMCQGELRHWKTGHYTLIHDHSKAEFALDLILYCGCEGWEPEYGGFTSYIAKGEDEELLTVNPESNSLALVYRDRETLKFVKHINHRSLEQKKTFPNRTGFWDFSFIYYE
For the protein B1, the “MALDI mass spectrometry, +16 mass shift” value in series [1] is recorded as “no such change was detectable with the H155A or D157A variants under standard assay conditions”.

B2: D157A mutant of full-length human OGFOD1 (protein)
chain: B1 chain with D180A
On to B2, for which the “MALDI mass spectrometry, +16 mass shift” value in series [1] is given as “no such change was detectable with the H155A or D157A variants under standard assay conditions”.

B3: recombinant full-length human OGFOD1 (protein)
chain: MNGKRPAEPGPARVGKKGKKEVMAEFSDAVTEETLKKQVAEAWSRRTPFSHEVIVMDMDPFLHCVIPNFIQSQDFLEGLQKELMNLDFHEKYNDLYKFQQSDDLKKRREPHISTLRKILFEDFRSWLSDISKIDLESTIDMSCAKYEFTDALLCHDDELEGRRIAFILYLVPPWDRSMGGTLDLYSIDEHFQPKQIVKSLIPSWNKLVFFEVSPVSFHQVSEVLSEEKSRLSISGWFHGPSLTRPPNYFEPPIPRSPHIPQDHEILYDWINPTYLDMDYQVQIQEEFEESSEILLKEFLKPEKFTKVCEALEHGHVEWSSRGPPNKRFYEKAEESKLPEILKECMKLFRSEALFLLLSNFTGLKLHFLAPSEEDEMNDKKEAETTDITEEGTSHSPPEPENNQMAISNNSQQSNEQTDPEPEENETKKESSVPMCQGELRHWKTGHYTLIHDHSKAEFALDLILYCGCEGWEPEYGGFTSYIAKGEDEELLTVNPESNSLALVYRDRETLKFVKHINHRSLEQKKTFPNRTGFWDFSFIYYE
For B3, the “MALDI-TOF, +16 Da mass shift characteristic of hydroxylation” value in series [2], in [3] and in [5] was “None of these potential substrates displayed evidence of a +16 Da mass shift characteristic of hydroxylation” throughout. The Hydroxylation entry with RPS23 20mer E08A, with RPS23 20mer, with RPS23 20mer K18A, with RPS23 20mer C19A, with S. Pombe RPS23 peptide and in the series with RPS23 20mer I16A was “++” each time. Moreover, the Hydroxylation result with RPS23 20mer P12I is recorded as “-”; in the series with E. Coli S12 peptide, “-”; in the series with RPS23 20mer Q11A it was “++”; with RPS23 20mer S14A it was “+”; with RPS23 20mer G06A, “++”; with RPS23 20mer K04A, “++”. Moreover, the Hydroxylation entry in the series with RPS23 20mer N13A is on record as “+”; in the series with RPS23 20mer V07A, “++”; with RPS23 20mer V05A it was “++”; in series [6], “++”; with RPS23 16mer, “+”; with RPS23 20mer P12A, “-”. Also, in the series with RPS23 20mer K10A, the Hydroxylation result is “++”. Also, the “amino acid analysis of the enzymatic product” value with RPS23 20mer is listed as “The results clearly demonstrate the presence of trans-3-hydroxyproline in the enzymatic product”. Also, in series [4], the “MALDI-TOF, demethylation” value is “Neither did we find that OGFOD1 catalyzed N^ε-methyl-lysine or arginyl demethylation of histone fragment peptides”. In addition, the 2OG turnover assay entry in series [1] was “Activity is also stimulated significantly in the presence of a peptide fragment of the RPS23 protein”. Besides, the “MALDI mass spectrometry, +16 mass shift” value in series [1] is given as “a clear +16 mass shift was observed upon incubation of RPS23 peptide with wild-type OGFOD1”. Further, the “Hydroxylation (MALDI assay)” value in series [5] is “No hydroxylation of the PHD2 C-terminal oxygen-dependent degradation domain (CODD) substrate by OGFOD1 was observed under the same assay conditions”.

The values are drawn from patent US20140051106.
